Results from patent publication US20210069289.

Target: human octamer-binding transcription factor 4 (OCT4), endogenous in NCCIT and NTERA-2 cells (UniProt Q01860)
UniProt Q01860, sequence (Q01860 whole entry, looked up): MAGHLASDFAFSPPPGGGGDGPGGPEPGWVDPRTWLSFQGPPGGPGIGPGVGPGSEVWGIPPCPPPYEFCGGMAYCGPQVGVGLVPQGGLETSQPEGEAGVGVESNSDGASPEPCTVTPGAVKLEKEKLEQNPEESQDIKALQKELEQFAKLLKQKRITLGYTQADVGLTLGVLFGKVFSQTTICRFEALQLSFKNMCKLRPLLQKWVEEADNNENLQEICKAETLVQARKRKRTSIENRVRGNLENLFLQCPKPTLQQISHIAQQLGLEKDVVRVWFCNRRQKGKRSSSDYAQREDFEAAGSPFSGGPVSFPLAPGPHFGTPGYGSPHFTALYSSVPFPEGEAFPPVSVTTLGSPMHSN

protein phosphatase 1 (PP1), endogenous in NCCIT and NTERA-2 cells
phosphorylated OCT4 after doxycycline-dependent shRNA suppression of PP1 (western blotting and immunofluorescence staining): when the expression of PP1 was suppressed using doxycycline, the phosphorylated OCT4 was increased
phosphorylation of OCT4 after okadaic acid treatment (western blotting and immunofluorescence staining): when PP1 was inhibited, the phosphorylation of OCT4 was increased
